For experiment [1], the target named is human CLDN18.2 (human). Briefly: cell-based or functional assay.
Experiment [2] addresses T1, human CLDN18.1 (human, UniProt P56856 1-261).
T1 construct: Overexpressed on HEK293 cells; also called human CLDN18.1-HEK293
Briefly: flow cytometry, binding intensity on human CLDN18.1-HEK293 cells at different concentrations.
Description: Therefore, antibodies (including a high concentration of 100 μg/mL) at different concentrations were used to be incubated with human CLDN18.1-HEK293 in vitro in this example. The method was as described in section 1.3.1, wherein antibodies at different concentrations were incubated with target cells human CLDN18.1-HEK293 at 4° C. for 1 h. Next, the resulting cultures were rinsed three times with the above-mentioned FACS buffer. 0.5 μg (0.5 mg/ml) of PE-labeled goat anti-human IgG Fc antibody (Abcam, ab98596) was added, and the resulting mixture was incubated at 4° C. for 1 h, and then rinsed three times with the FACS buffer.

For experiment [3], the target named is T2, human CLDN18.2 (human).
T2 construct: also called CLD18A2; huCLDN18.2
Briefly: flow cytometry on human CLDN18.2-HEK293T cells.

The target of experiment [4] is T1, human CLDN18.1. Briefly: flow cytometry with phage supernatant, anti-M13 antibody, on human CLDN18.1-HEK293 cells.
Excerpt: Firstly, 1×10⁵ human CLDN18.2-HEK293T and human CLDN18.1-HEK293 cells were taken, respectively and centrifuged at a low speed of 500 g, and the supernatant was removed.

T1 sequence (P56856 whole entry): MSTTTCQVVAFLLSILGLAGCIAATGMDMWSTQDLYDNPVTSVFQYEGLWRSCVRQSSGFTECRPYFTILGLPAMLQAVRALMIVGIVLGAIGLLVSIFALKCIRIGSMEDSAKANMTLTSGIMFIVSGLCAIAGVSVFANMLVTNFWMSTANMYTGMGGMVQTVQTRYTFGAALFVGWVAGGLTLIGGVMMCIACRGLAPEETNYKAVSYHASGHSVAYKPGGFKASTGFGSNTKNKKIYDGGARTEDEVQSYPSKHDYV

B1: IMAB362 antibody (antibody, V domains shown)
VH: QVQLQQPGAELVRPGASVKLSCKASGYTFTSYWINWVKQRPGQGLEWIGNIYPSDSYTNYNQKFKDKATLTVDKSSSTAYMQLSSPTSEDSAVYYCTRSWRGNSFDYWGQGTTLTVSS
VL: DIVMTQSPSSLTVTAGEKVTMSCKSSQSLLNSGNQKNYLTWYQQKPGQPPKLLIYWASTRESGVPDRFTGSGSGTDFTLTISSVQAEDLAVYYCQNDYSYPFTFGSGTKLEIKR
As for B1, in the experiment with human CLDN18.2 [1], the “EC50 of ADCC cell killing effect (LDH release, human PBMC) on human CLDN18.2-HEK293T cells, run with NA7-S” value worked out at 0.0862 nM; the “EC50 of ADCC cell killing effect (LDH release, human PBMC) on human CLDN18.2-HEK293T cells, run with NA8-S” value was 0.0636 nM; the “EC50 of CDC cell killing effect (MTS) on human CLDN18.2-HEK293T cells, run with NA4-S” value turned out to be 0.613 nM; the “EC50 of CDC cell killing effect (MTS) on human CLDN18.2-HEK293T cells, run with NA7-S” value was 0.628 nM. Also, in the experiment with human CLDN18.2 [1], the “EC50 of CDC cell killing effect (MTS) on human CLDN18.2-HEK293T cells, run with NA8-S” value was 1.86 nM; the “EC50 of CDC cell killing effect (MTS) on human CLDN18.2-KATOIII tumor cells, run with NA7-S” value is 69.8 nM; the “EC50 of CDC cell killing effect (MTS) on human CLDN18.2-KATOIII tumor cells, run with NA8-S” value was determined as 1860 nM; the “IC50 of Fab-ZAP cell killing (endocytosis, MTS) on CLDN18.2-HEK293T cells, run with NA7-S” value was 0.128 nM. Further, the “IC50 of Fab-ZAP cell killing (endocytosis, MTS) on CLDN18.2-HEK293T cells, run with NA8-S” value with human CLDN18.2 [1] is 0.136 nM.

B2: humanized antibody NA4-S-H7 (Fc fusion)
chain: EVQLVESGGGLVQPGGSLRLSCAASGSIFSINVMGWYRQAPGKQRELVAGISTGGTTRYADSVKGRFTISRDNAKNTLYLQMNSLRAEDTAVYYCNADLATATSWPVRYLEVWGQGTLVTVSS
notes: not shown: Fc part implied (detected with anti-human IgG Fc; parent molecule in CDC/ADCC)
B2: the binding result with human CLDN18.1 [2] is on record as “no binding (tested: 100 µg/mL)”. Besides, in the experiment with human CLDN18.2 [3], a half-maximal response (EC50) required 0.877 µg/mL and the “binding intensity (MFI) at the highest concentration” value amounted to 128000 MFI.

B3: clone NA4-S, VHH displayed on phage (VHH)
VHH: EVQVVESGGGLVQPGGSLRLSCAASGSIFSINVMGWYRQAPGKQRELVAGISTGGTTRYADSAKGRFTISRDNAKNTVYLQMNSLKPEDTAVYYCNADLATATSWPVRYLEVWGQGTLVTVSA
notes: also called NA4-S (phage supernatant); candidate nanobody NA4-S
Consider B3, for which the binding result with human CLDN18.1 [4] is “no binding”.

B4: clone NA7-S, VHH displayed on phage (VHH)
VHH: EVQVQESGGGLVQPGGSLRLSCAASGSFFRIVAMGWYRQAPGSQRELVATITRGGSTYYADSMKGRSTISRDNAKNTVYLQMNSLKPEDTAVYYCNVRVEVPFMQPNDYWGHGTQVTVSS
notes: also called NA7-S (phage supernatant); candidate nanobody NA7-S
B4: the binding result with human CLDN18.1 [4] was “no binding”.

B5: humanized antibody NA7-S-H2 (Fc fusion)
chain: EVQLVESGGGLVQPGGSLRLSCAASGSFFRIVAMGWYRQAPGKGRELVATITRGGSTYYADSMKGRSTISRDNAKNTVYLQMNSLKPEDTAVYYCNVRVEVPFMQPNDYWGQGTLVTVSS
notes: as for B2
Take B5: in the experiment with human CLDN18.2 [3], a half-maximal response (EC50) required 0.482 µg/mL and the “binding intensity (MFI) at the highest concentration” value stood at 184000 MFI.

The values above are taken from patent US20240092891A1 (SANYOU BIOPHARMACEUTICALS, published 2024).
